Data as given in US20210292396A1.

Tests used:
Experiment in all cases: cell-based or functional assay
[1] = molecular target: Env of HIV isolate CNE58 (clade C in Table 7) (HIV)
[2] = molecular target: HIV Env of isolate BL01.DG (HIV)
[3] = molecular target: Env of HIV isolate 242-14 (clade AG) (HIV)
[4] = molecular target: Env of HIV isolate CAP45.G3 (clade C) (HIV)
[5] = molecular target: HIV Env of isolate CAP45.G3 (HIV)
[6] = molecular target: HIV Env of isolate 3365.v2.c20 (HIV)
[7] = molecular target: Env of HIV isolate DU123.06 (clade C) (HIV)
[8] = molecular target: HIV Env of isolate ZM214.15 (HIV)
[9] = molecular target: Env of HIV isolate R2184.c4 (clade AE) (HIV)
[10] = molecular target: HIV Env of isolate MS208.A1 (HIV)
[11] = molecular target: Env of HIV isolate CNE53 (clade C in Table 7) (HIV)
[12] = molecular target: Env of HIV isolate Q168.a2 (clade AD) (HIV)
[13] = molecular target: Env of HIV isolate C4118.09 (clade AE) (HIV)
[14] = molecular target: Env of HIV isolate CNE4 (clade B) (HIV)
[15] = molecular target: HIV Env of isolate DU156.12 (HIV)
[16] = molecular target: Env of HIV isolate DJ263.8 (clade AG) (HIV)
[17] = molecular target: HIV Env of isolate A07412M1.vrc12 (HIV)
[18] = molecular target: HIV Env of isolate PVO.04 (HIV)
[19] = molecular target: HIV Env of isolate CNE3 (HIV)
[20] = molecular target: HIV Env of isolate 6540.v4.c1 (HIV)
[21] = molecular target: Env of HIV isolate DU156.12 (clade C) (HIV)
[22] = molecular target: Env of HIV isolate 6545.v4.c1 (clade AC) (HIV)
[23] = molecular target: Env of HIV isolate 25710-2.43 (clade C) (HIV)
[24] = molecular target: Env of HIV isolate 001428-2.42 (clade C) (HIV)
[25] = molecular target: HIV Env of isolate 89.6.DG (HIV)
[26] = molecular target: Env of HIV isolate 89.6.DG (clade B) (HIV)
[27] = molecular target: Env of HIV isolate BB539.2B13 (clade A) (HIV)
[28] = molecular target: Env of HIV isolate R3265.c6 (clade AE) (HIV)
[29] = molecular target: HIV Env of isolate 246-F3.C10.2 (HIV)
[30] = molecular target: Env of HIV isolate T33-7 (clade AG) (HIV)
[31] = molecular target: Env of HIV isolate BG505.W6M.C2 (clade A) (HIV)
[32] = molecular target: HIV Env of isolate 191821.E6.1 (HIV)
[33] = molecular target: Env of HIV isolate 3326.v4.c3 (clade CD) (HIV)
[34] = molecular target: HIV Env of isolate 3817.v2.c59 (HIV)
[35] = molecular target: HIV Env of isolate 6785.v5.c14 (HIV)
[36] = molecular target: Env of HIV isolate YU2.DG (clade B) (HIV)
[37] = molecular target: HIV Env of isolate 16936-2.21 (HIV)
[38] = molecular target: HIV Env of isolate 96ZM651.02 (HIV)
[39] = molecular target: Env of HIV isolate DU172.17 (clade C) (HIV)
[40] = molecular target: HIV Env of isolate Q842.d12 (HIV)
[41] = molecular target: Env of HIV isolate 263-8 (clade AG) (HIV)
[42] = molecular target: Env of HIV isolate X1254.c3 (clade G) (HIV)
[43] = molecular target: HIV Env of isolate RW020.2 (HIV)
[44] = molecular target: Env of HIV isolate SC422.8 (clade B) (HIV)
[45] = molecular target: HIV Env of isolate T266-60 (HIV)
[46] = molecular target: Env of HIV isolate X1193.c1 (clade G) (HIV)
[47] = molecular target: Env of HIV isolate ZM197.7 (clade C) (HIV)
[48] = molecular target: HIV Env of isolate R2184.c4 (HIV)
[49] = molecular target: HIV Env of isolate X1254.c3 (HIV)
[50] = molecular target: HIV Env of isolate CNE12 (HIV)
[51] = molecular target: Env of HIV isolate BX08.16 (clade B) (HIV)
[52] = molecular target: HIV Env of isolate QH0515.01 (HIV)
[53] = molecular target: Env of HIV isolate UG021.16 (clade D) (HIV)

PGT121 (antibody)
IC50, pseudovirus neutralization [1]: 9.34 µg/mL | IC80 [2]: > 50 µg/mL | IC50, pseudovirus neutralization [3]: > 50 µg/mL | IC50, pseudovirus neutralization [4]: 0.866 µg/mL | IC80, pseudovirus neutralization [5]: > 50 µg/mL | IC80 [6]: 0.639 µg/mL | IC50, pseudovirus neutralization [7]: 0.0477 µg/mL | IC80, pseudovirus neutralization [8]: 1.57 µg/mL | IC50, pseudovirus neutralization [9]: > 50 µg/mL | IC80 [10]: > 50 µg/mL | IC50, pseudovirus neutralization [11]: 0.0263 µg/mL | IC50, pseudovirus neutralization [12]: > 50 µg/mL | IC50, pseudovirus neutralization [13]: > 50 µg/mL | IC50, pseudovirus neutralization [14]: 1.9 µg/mL | IC80, pseudovirus neutralization [15]: 0.0367 µg/mL | IC50, pseudovirus neutralization [16]: 0.0577 µg/mL | IC80, pseudovirus neutralization [17]: 0.208 µg/mL | IC80 [18]: 0.498 µg/mL | IC80 [19]: > 50 µg/mL | IC80 [20]: > 50 µg/mL | IC50, pseudovirus neutralization [21]: 0.0147 µg/mL | IC50, pseudovirus neutralization [22]: > 50 µg/mL | IC50, pseudovirus neutralization [23]: 0.0227 µg/mL | IC50, pseudovirus neutralization [24]: 0.0337 µg/mL | IC80 [25]: 0.0783 µg/mL | IC50, pseudovirus neutralization [26]: 0.0337 µg/mL | IC50, pseudovirus neutralization [27]: > 50 µg/mL | IC50, pseudovirus neutralization [28]: > 50 µg/mL | IC80 [29]: > 50 µg/mL | IC50, pseudovirus neutralization [30]: > 50 µg/mL | IC50, pseudovirus neutralization [31]: 0.0513 µg/mL | IC80, pseudovirus neutralization [32]: > 50 µg/mL | IC50, pseudovirus neutralization [33]: > 50 µg/mL | IC80, pseudovirus neutralization [34]: > 50 µg/mL | IC80, pseudovirus neutralization [35]: 0.108 µg/mL | IC50, pseudovirus neutralization [36]: 0.0397 µg/mL | IC80, pseudovirus neutralization [37]: 0.024 µg/mL | IC80, pseudovirus neutralization [38]: 0.0613 µg/mL | IC50, pseudovirus neutralization [39]: 0.065 µg/mL | IC80 [40]: 0.0597 µg/mL | IC50, pseudovirus neutralization [41]: 0.484 µg/mL | IC50, pseudovirus neutralization [42]: 0.0347 µg/mL | IC80 [43]: 0.0177 µg/mL | IC50, pseudovirus neutralization [44]: 0.115 µg/mL | IC80 [45]: 0.548 µg/mL | IC50, pseudovirus neutralization [46]: 0.0457 µg/mL | IC50, pseudovirus neutralization [47]: > 50 µg/mL | IC80 [48]: > 50 µg/mL | IC80, pseudovirus neutralization [49]: 0.106 µg/mL | IC80 [50]: 0.0347 µg/mL | IC50, pseudovirus neutralization [51]: 0.00933 µg/mL | IC80 [52]: > 50 µg/mL | IC50, pseudovirus neutralization [53]: 0.916 µg/mL
